Assay results from patent US10766940 (GOVERNORS OF THE UNIVERSITY OF ALBERTA, dated 2020).
Positions of bridges follow the written chain, without caps; N, C: chain ends. No end group written: not given here.

T1: AMY3 receptor (heterodimeric complex of the calcitonin receptor and RAMP3) (UniProt P30988 25-474; O60896 24-148)
T1 sequence (looked up) 1: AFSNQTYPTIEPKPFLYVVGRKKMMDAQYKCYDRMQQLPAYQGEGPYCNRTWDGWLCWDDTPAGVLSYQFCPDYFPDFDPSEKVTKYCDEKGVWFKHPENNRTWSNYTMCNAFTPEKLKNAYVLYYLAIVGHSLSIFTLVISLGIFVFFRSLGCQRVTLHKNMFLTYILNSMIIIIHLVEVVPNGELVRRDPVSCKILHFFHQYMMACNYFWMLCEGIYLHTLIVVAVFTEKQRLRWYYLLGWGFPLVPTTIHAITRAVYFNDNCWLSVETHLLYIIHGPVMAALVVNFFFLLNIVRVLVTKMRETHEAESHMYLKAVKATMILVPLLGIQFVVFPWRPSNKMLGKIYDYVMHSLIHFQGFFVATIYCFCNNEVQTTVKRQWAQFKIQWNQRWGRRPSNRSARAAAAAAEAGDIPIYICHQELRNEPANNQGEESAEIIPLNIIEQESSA
T1 sequence (looked up) 2: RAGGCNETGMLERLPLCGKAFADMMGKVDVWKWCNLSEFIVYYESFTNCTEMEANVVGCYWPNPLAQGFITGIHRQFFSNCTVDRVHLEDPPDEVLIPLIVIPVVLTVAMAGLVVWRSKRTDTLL

B1: cyclized AC253 (peptide)
peptide: CLGRLSQELHRLQTYPRTNTGSNTYC-NH2
modifications: disulfide 1-26; also: flanking Cys said to be D-Cys in one passage
notes: AC253 with one cysteine added at each terminus, cyclized by a disulfide; cAMP assay used the unlabelled peptide; also called cAC253; cyclic AC253
B2: AC253 (peptide)
peptide: Ac-LGRLSQELHRLQTYPRTNTGSNTY-NH2
modifications: not fully specified; printed as Ac-LGRLSQELHRLQTYPRTNTGSNTY; also: labelled form for binding: Cy5/Cy5.5 on extra N-terminal beta-alanine spacer
notes: Synthetic 24-residue peptide; cAMP assay used the unlabelled peptide; also called linear AC253; Cy5-AC253

Tests used:
[1] = target: T2, AMY1 receptor (heterodimeric complex of the calcitonin receptor and RAMP1) (UniProt P30988 25-474; O60894 27-148); assay: flow cytometry cell uptake, AMY1 transfected cells; reference other fragments
T2 construct: whole, on cells; also called amylin receptor subtype 1

[2] = target: T1, AMY3 receptor (heterodimeric complex of …); assay: cell-based or functional assay
[3] = target: amylin receptor in mouse brain (mouse, UniProt Q60755 42-533); assay: cell-based or functional assay
[4] = target: T1, AMY3 receptor (heterodimeric complex of …); assay: flow cytometry, Cy5-labelled peptide 5 µM, AMY3-HEK cells; reference AC253
Experimental: (§1) d) For flow cytometry studies, AMY3-293 cells were used to determine cell binding and uptake and binding of Cy5-AC253, and Cy5-cAC253 peptides. Cell were plated at a density of 1.5 ×10^5 cells/well and cultured overnight in 12-well plates at 37° C. Cy5 labelled peptides (5 μM) were added and incubated for 1 hour at 37° C. in serum free media. The culture media was discarded, and cell monolayers were washed with PBS containing 2 mM EDTA and 0.5% BSA adjusted to pH 7.4 at 37° C. Cells were washed again with cold buffer and incubated with 0.25% trypsin to remove cell surface-associated fluorophores. Cells were dispersed in FACS solution (10% FBS in PBS) and analyzed using a FACSCanto II flow cytometer (BD Biosciences, USA) selecting a detection window between 720 and 840 nm. Fluorescence histograms and dot plots were generated using the data were processed with FLOWJO software (Tree Star, Inc, USA). At least 10,000 gated events per sample were analyzed. The experiment was repeated with different peptide concentration ranging from 0.5-10 μM, and mean fluorescence intensity of peptides was extrapolated. To further study the cell uptake mechanism, cells were preincubated with cytochalasin D (cytoD, […]) for 30 minutes, and the experiment was repeated as above. […]

[5] = target: T1, AMY3 receptor (heterodimeric complex of …); assay: flow cytometry, dose-dependent binding of Cy5-labelled peptide (0.5-10 µM) to AMY3-HEK cells
Experimental: as §1

[6] = target: T1, AMY3 receptor (heterodimeric complex of …); assay: flow cytometry, Cy5.5-labelled peptide 5 µM; wild type HEK293 against AMY3-HEK cells

T2 sequence (O60894 27-148, one chain of several): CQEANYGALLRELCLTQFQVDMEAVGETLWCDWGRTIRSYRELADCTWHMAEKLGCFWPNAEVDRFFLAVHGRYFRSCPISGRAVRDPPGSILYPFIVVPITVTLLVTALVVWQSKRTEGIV
amylin receptor in mouse brain, sequence (Q60755 42-533): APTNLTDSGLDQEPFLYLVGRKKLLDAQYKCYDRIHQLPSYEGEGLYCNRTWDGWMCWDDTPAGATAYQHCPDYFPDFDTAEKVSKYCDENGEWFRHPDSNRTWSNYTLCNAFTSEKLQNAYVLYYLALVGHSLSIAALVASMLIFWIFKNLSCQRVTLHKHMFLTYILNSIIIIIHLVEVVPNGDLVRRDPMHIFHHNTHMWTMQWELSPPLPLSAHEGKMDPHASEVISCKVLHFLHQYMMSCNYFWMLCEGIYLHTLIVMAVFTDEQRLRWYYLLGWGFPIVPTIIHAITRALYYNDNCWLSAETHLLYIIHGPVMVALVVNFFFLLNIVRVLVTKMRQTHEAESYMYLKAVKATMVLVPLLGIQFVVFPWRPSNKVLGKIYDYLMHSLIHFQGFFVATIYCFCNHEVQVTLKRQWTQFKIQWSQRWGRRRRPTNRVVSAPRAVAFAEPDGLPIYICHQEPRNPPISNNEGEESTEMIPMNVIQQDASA

Binder	fold increase in specific binding compared to other fragments [1] [fold]	IC50 for inhibition of hAmylin evoked cAMP increase in AMY3-HEK cells [2] [µM]	fold potency versus AC253 in inhibiting AMY3 receptor activity (cAMP) [2] [fold]	reduction in brain fluorescence after ip injection of Cy5-cAC253 mixed with 5-fold excess of unlabeled cAC253 (in vivo competition, ex vivo NIRF imaging) [3] [%]	fold binding and uptake compared to AC253 [4] [fold]	Kd [5] [µM]	fold decrease in binding and uptake in wild type HEK293 cells compared to AMY3-HEK cells [6] [fold]
RLQTYPRTNTGS (not fully specified (N-terminus, C-terminus), 12-residue fragment of AC253) [peptide fragment R10 of AC253]	3						
B1		~0.3	3	75	3	1.45	10
B2		~0.85					10
